Series [1] relates to T1, Aac MutS (Alicyclobacillus acidocaldarius subsp. acidocaldarius JCM5260).
T1 sequence: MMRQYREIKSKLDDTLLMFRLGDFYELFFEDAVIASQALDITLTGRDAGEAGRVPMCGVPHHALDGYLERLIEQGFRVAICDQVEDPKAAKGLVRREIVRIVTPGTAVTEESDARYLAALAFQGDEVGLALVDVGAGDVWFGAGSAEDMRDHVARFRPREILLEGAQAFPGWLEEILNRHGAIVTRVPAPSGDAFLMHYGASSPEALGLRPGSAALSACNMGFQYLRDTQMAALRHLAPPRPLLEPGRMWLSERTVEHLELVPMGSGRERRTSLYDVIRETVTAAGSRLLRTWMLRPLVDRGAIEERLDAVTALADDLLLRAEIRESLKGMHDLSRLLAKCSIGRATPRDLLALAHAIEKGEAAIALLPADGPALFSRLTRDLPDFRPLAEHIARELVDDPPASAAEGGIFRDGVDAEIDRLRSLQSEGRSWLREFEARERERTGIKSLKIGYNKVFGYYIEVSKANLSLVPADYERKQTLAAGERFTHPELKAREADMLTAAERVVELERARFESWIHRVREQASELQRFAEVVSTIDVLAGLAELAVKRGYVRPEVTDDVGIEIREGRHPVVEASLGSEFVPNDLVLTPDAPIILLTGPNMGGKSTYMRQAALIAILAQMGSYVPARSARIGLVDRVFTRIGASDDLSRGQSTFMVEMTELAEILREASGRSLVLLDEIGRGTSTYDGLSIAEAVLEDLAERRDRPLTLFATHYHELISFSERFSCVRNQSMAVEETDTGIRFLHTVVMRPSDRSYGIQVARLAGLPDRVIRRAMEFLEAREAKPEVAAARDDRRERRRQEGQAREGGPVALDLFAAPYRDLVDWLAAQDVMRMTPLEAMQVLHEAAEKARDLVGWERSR
Nature of the series: SPR. The following applies: 20 mM MgCl2.

For series [2], the target named is T2, Aac MutS (Alicyclobacillus acidocaldarius subsp. …).
T2 chain: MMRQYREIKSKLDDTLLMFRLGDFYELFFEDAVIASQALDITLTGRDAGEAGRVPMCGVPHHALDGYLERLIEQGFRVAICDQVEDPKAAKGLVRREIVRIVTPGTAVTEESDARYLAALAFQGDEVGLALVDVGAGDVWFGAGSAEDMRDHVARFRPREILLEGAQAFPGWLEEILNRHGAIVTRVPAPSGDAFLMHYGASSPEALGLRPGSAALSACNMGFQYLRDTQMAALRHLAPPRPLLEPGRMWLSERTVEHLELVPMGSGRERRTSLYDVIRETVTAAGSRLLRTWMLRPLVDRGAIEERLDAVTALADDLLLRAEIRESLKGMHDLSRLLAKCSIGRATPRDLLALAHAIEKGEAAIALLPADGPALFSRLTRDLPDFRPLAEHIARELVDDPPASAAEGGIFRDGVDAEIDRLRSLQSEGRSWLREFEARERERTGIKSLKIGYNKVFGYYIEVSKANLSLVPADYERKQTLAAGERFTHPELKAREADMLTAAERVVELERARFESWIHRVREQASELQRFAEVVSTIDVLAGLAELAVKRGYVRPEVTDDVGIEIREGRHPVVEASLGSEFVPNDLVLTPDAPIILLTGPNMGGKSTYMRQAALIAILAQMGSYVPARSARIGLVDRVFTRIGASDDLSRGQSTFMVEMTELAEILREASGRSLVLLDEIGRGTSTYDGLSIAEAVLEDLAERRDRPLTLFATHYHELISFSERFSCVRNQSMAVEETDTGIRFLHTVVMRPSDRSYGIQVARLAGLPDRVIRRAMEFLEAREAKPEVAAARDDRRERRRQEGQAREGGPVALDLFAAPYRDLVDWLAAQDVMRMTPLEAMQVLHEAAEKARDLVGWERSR
Nature of the series: SPR; Example 3-1; 1 mM ADP, 20 mM MgCl2, 50 mM KCl, pH 7.6. The following applies: tags: none stated (pET17b, E. coli BL21-CodonPlus(DE3)RIL); chain copies: 2 stated; label: 5'-biotin on T-strand; single G-T mismatch. How it is done: (§1) The chip was set in BIACORE3000, then the running buffer was passed through a channel of the chip at a flow rate of 10 μL/min, and an experiment was started as follows. First, 5 μmol/L C-strand DNA, 5 μmol/L T-strand DNA, and 5 μmol/L Del-strand DNA as regands were passed through the respective three flow cells contained in the chip at a flow rate of 10 μL/min, and they were bound to each other until the Resonance Unit reached about 150 RU (Resonance Unit). Subsequently, 5 μmol/L of the G-strand DNA was injected into each of the flow cells at a flow rate of 20 μL/min for 2 minutes, and thereafter, the flow cells were washed with the running buffer for 10 minutes. Thus, double-stranded DNAs between the C-strand DNA and the G-strand DNA, between T-strand DNA and the same, and between the Del-strand DNA and the same were formed. […] While injecting and washing, signal intensity was measured from the start of the injection of the Aac MutS. In Comparative Example 1, signal intensity was measured by the same treatment as that of Example 2 using Taq MutS derived from Thermus aquatieus as substitute for the Aac MutS.
(§2) The signal intensity was measured in the same manner as in Example 2 except that 1 mmol/L ADP or ATP was added to the running buffer of Example 2. […] In Comparative Example 2, the signal intensity was measured using the Taq MutS in the same manner as in Example 3. […]

In series [3] the target is T2, Aac MutS. In words: SPR; Example 2; no nucleotide, 20 mM MgCl2, 50 mM KCl, pH 7.6. As to conditions: tags: none stated (pET17b, E. coli BL21-CodonPlus(DE3)RIL); chain copies: 2 stated; label: 5'-biotin on T-strand; single G-T mismatch. How it is done: (§3) The chip was set in BIACORE3000, then the running buffer was passed through a channel of the chip at a flow rate of 10 μL/min, and an experiment was started as follows. First, 5 μmol/L C-strand DNA, 5 μmol/L T-strand DNA, and 5 μmol/L Del-strand DNA as regands were passed through the respective three flow cells contained in the chip at a flow rate of 10 μL/min, and they were bound to each other until the Resonance Unit reached about 150 RU (Resonance Unit). Subsequently, 5 μmol/L of the G-strand DNA was injected into each of the flow cells at a flow rate of 20 μL/min for 2 minutes, and thereafter, the flow cells were washed with the running buffer for 10 minutes. Thus, double-stranded DNAs between the C-strand DNA and the G-strand DNA, between T-strand DNA and the same, and between the Del-strand DNA and the same were formed. Then, an Aac MutS solution with the predetermined concentration (0.1, 0.2, 0.5, 1, 2, or 4 μmol/L) was injected into each of the flow cells at a flow rate of 20 μL/min for 10 minutes, and thereafter, the flow cells were washed with the running buffer for 20 minutes. While injecting and washing, signal intensity was measured from the start of the injection of the Aac MutS. In Comparative Example 1, signal intensity was measured by the same treatment as that of Example 2 using Taq MutS derived from Thermus aquatieus as substitute for the Aac MutS.

Series [4] has as its target T3, Taq MutS (Thermus aquaticus, UniProt Q56215 Q56215:1-811).
T3 sequence: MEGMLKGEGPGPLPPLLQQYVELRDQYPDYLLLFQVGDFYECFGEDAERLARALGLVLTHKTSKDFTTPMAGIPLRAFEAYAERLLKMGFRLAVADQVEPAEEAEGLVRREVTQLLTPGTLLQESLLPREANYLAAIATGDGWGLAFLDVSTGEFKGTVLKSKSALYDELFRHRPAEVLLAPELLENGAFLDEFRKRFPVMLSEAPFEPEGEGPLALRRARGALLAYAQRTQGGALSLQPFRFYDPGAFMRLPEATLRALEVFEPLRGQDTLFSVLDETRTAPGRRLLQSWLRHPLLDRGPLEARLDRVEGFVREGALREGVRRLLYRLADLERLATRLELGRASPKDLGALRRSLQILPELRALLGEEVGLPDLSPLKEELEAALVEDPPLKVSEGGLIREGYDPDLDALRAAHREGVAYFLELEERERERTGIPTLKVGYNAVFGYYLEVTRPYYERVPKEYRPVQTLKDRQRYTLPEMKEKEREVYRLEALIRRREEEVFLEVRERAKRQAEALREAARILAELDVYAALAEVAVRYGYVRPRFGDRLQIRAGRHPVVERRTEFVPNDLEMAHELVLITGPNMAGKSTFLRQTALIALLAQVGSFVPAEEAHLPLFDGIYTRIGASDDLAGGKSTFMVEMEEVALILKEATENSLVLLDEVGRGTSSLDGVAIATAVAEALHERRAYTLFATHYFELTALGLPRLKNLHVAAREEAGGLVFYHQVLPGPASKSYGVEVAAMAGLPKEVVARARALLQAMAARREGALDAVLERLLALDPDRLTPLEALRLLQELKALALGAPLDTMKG
In words: SPR; Comp. Ex. 2-1; 1 mM ADP, 20 mM MgCl2. How it is done: as §1, §2

In series [5] the target is T3, Taq MutS. Nature of the series: SPR; Comp. Ex. 1; no nucleotide, 20 mM MgCl2, 50 mM KCl, pH 7.6. The following applies: label: 5'-biotin on T-strand; single G-T mismatch. How it is done: as §3
Series [6] addresses T3, Taq MutS. Nature of the series: SPR; Comp. Ex. 1; no nucleotide, 20 mM MgCl2. The following applies: label: 5'-biotin on C-strand. How it is done:
as §3

As to “CCGCTGAATTGCACCGAGCTCGATCCTCGATGATCCTAAGCGATCCATG (double strand) [C/G fully-matched duplex]”, the Kd in series [1] (Example 2, no nucleotide, text says binding not found) came to 65500 nM; in series [1] (Example 3-1, 1 mM ADP, binding described as sufficiently suppressed) it was 19800 nM.

B1: T/G mismatched duplex (dsDNA)
DNA 1: CCGCTGAATTGCACCGAGCTTGATCCTCGATGATCCTAAGCGATCCATG
DNA 2: CATGGATCGCTTAGGATCATCGAGGATCGAGCTCGGTGCAATTCAGCGG
Take B1: the Kd with Aac MutS [2] was 330 nM; with Aac MutS [3], 1450 nM; with Taq MutS [4] (label: 5'-biotin on T-strand, single G-T mismatch), 2260 nM; with Taq MutS [5] it was 622 nM.

B2: C/G fully-matched duplex (dsDNA)
DNA 1: CCGCTGAATTGCACCGAGCTCGATCCTCGATGATCCTAAGCGATCCATG
DNA 2: CATGGATCGCTTAGGATCATCGAGGATCGAGCTCGGTGCAATTCAGCGG
With B2, the values for the Kd in the series with Taq MutS [6] and with Taq MutS [4] (label: 5'-biotin on C-strand) were 2270 nM and 6580 nM, respectively.

Values taken from US20110236900, “NOVEL MUTS PROTEIN AND METHOD FOR DETERMING MUTATION USING THE SAME” (RIKEN, published 2011).
